How the values were obtained:
Test in all cases: cell-based or functional assay
[1] = target: TSHR with Arg274 mutated to Ala, expressed in CHO cells (human) (UniProt P16473)
[2] = target: TSHR with His105 mutated to Ala (expressed in CHO cells) (human) (UniProt P16473)
[3] = target: TSHR with Tyr206 mutated to Ala (expressed in CHO cells) (human) (UniProt P16473)
[4] = target: TSHR with Arg255 mutated to Asp expressed in CHO cells (human) (UniProt P16473)

## TSH (ligand)
[1]
  Cyclic AMP produced (pmol/mL), TSH 0.01 ng/mL, Experiment 1: 1.97 pmol/mL
  Cyclic AMP produced (pmol/mL), TSH 0.01 ng/mL, Experiment 2: 1.37 pmol/mL
  Cyclic AMP produced (pmol/mL), TSH 0.03 ng/mL, Experiment 1: 4.14 pmol/mL
  Cyclic AMP produced (pmol/mL), TSH 0.03 ng/mL, Experiment 2: 2.94 pmol/mL
  Cyclic AMP produced (pmol/mL), TSH 0.1 ng/mL, Experiment 1: 9.38 pmol/mL
  Cyclic AMP produced (pmol/mL), TSH 0.1 ng/mL, Experiment 2: 8.29 pmol/mL
  Cyclic AMP produced (pmol/mL), TSH 0.3 ng/mL, Experiment 1: 27.3 pmol/mL
  Cyclic AMP produced (pmol/mL), TSH 0.3 ng/mL, Experiment 2: 25.5 pmol/mL
  Cyclic AMP produced (pmol/mL), TSH 1 ng/mL, Experiment 1: 67.6 pmol/mL
  Cyclic AMP produced (pmol/mL), TSH 1 ng/mL, Experiment 2: 58.5 pmol/mL
  Cyclic AMP produced (pmol/mL), TSH 3 ng/mL, Experiment 1: 98.8 pmol/mL
  Cyclic AMP produced (pmol/mL), TSH 3 ng/mL, Experiment 2: 73.2 pmol/mL
  Mutated/Wild type (%), TSH 0.01 ng/mL, Experiment 1: 106%
  Mutated/Wild type (%), TSH 0.01 ng/mL, Experiment 2: 55%
  Mutated/Wild type (%), TSH 0.03 ng/mL, Experiment 1: 125%
  Mutated/Wild type (%), TSH 0.03 ng/mL, Experiment 2: 57%
  Mutated/Wild type (%), TSH 0.1 ng/mL, Experiment 1: 64%
  Mutated/Wild type (%), TSH 0.1 ng/mL, Experiment 2: 61%
  Mutated/Wild type (%), TSH 0.3 ng/mL, Experiment 1: 56%
  Mutated/Wild type (%), TSH 0.3 ng/mL, Experiment 2: 64%
  Mutated/Wild type (%), TSH 1 ng/mL, Experiment 1: 74%
  Mutated/Wild type (%), TSH 1 ng/mL, Experiment 2: 79%
  Mutated/Wild type (%), TSH 3 ng/mL, Experiment 1: 83%
  Mutated/Wild type (%), TSH 3 ng/mL, Experiment 2: 82%
[2]
  Cyclic AMP produced (pmol/mL), TSH 0.01 ng/mL: 4.8 pmol/mL
  Cyclic AMP produced (pmol/mL), TSH 0.03 ng/mL: 3.55 pmol/mL
  Cyclic AMP produced (pmol/mL), TSH 0.1 ng/mL: 4.82 pmol/mL
  Cyclic AMP produced (pmol/mL), TSH 0.3 ng/mL: 11.9 pmol/mL
  Cyclic AMP produced (pmol/mL), TSH 1 ng/mL: 34.6 pmol/mL
  Cyclic AMP produced (pmol/mL), TSH 3 ng/mL: 58.3 pmol/mL
  Mutated/Wild type (%), TSH 0.01 ng/mL: 308%
  Mutated/Wild type (%), TSH 0.03 ng/mL: 147%
  Mutated/Wild type (%), TSH 0.1 ng/mL: 118%
  Mutated/Wild type (%), TSH 0.3 ng/mL: 104%
  Mutated/Wild type (%), TSH 1 ng/mL: 76%
  Mutated/Wild type (%), TSH 3 ng/mL: 75%
[3]
  Mutated/Wild type (%) of cyclic AMP produced, TSH 0.01 ng/mL, Experiment 1: 83%
  Mutated/Wild type (%) of cyclic AMP produced, TSH 0.01 ng/mL, Experiment 2: 135%
  Mutated/Wild type (%) of cyclic AMP produced, TSH 0.03 ng/mL, Experiment 1: 124%
  Mutated/Wild type (%) of cyclic AMP produced, TSH 0.03 ng/mL, Experiment 2: 144%
  Mutated/Wild type (%) of cyclic AMP produced, TSH 0.1 ng/mL, Experiment 1: 93%
  Mutated/Wild type (%) of cyclic AMP produced, TSH 0.1 ng/mL, Experiment 2: 178%
  Mutated/Wild type (%) of cyclic AMP produced, TSH 0.3 ng/mL, Experiment 1: 104%
  Mutated/Wild type (%) of cyclic AMP produced, TSH 0.3 ng/mL, Experiment 2: 110%
  Mutated/Wild type (%) of cyclic AMP produced, TSH 1 ng/mL, Experiment 1: 66%
  Mutated/Wild type (%) of cyclic AMP produced, TSH 1 ng/mL, Experiment 2: 93%
  Mutated/wild type (%) of cyclic AMP produced; TSH 3 ng/mL; Experiment 1: 62%
  Mutated/wild type (%) of cyclic AMP produced; TSH 3 ng/mL; Experiment 2: 97%
[4]
  Cyclic AMP produced (pmol/mL), TSH 0.01 ng/mL, Experiment 1: 2.59 pmol/mL
  Cyclic AMP produced (pmol/mL), TSH 0.01 ng/mL, Experiment 2: 1.49 pmol/mL
  Cyclic AMP produced (pmol/mL), TSH 0.01 ng/mL, Experiment 3: 6.46 pmol/mL
  Cyclic AMP produced (pmol/mL), TSH 0.03 ng/mL, Experiment 1: 6.47 pmol/mL
  Cyclic AMP produced (pmol/mL), TSH 0.03 ng/mL, Experiment 2: 2.81 pmol/mL
  Cyclic AMP produced (pmol/mL), TSH 0.03 ng/mL, Experiment 3: 9.44 pmol/mL
  Cyclic AMP produced (pmol/mL), TSH 0.1 ng/mL, Experiment 1: 19.2 pmol/mL
  Cyclic AMP produced (pmol/mL), TSH 0.1 ng/mL, Experiment 2: 6.92 pmol/mL
  Cyclic AMP produced (pmol/mL), TSH 0.1 ng/mL, Experiment 3: 22.7 pmol/mL
  Cyclic AMP produced (pmol/mL), TSH 0.3 ng/mL, Experiment 1: 51.7 pmol/mL
  Cyclic AMP produced (pmol/mL), TSH 0.3 ng/mL, Experiment 2 (duplicate determination): 21.2 pmol/mL
  Cyclic AMP produced (pmol/mL), TSH 0.3 ng/mL, Experiment 3: 68.9 pmol/mL
  Cyclic AMP produced (pmol/mL), TSH 1 ng/mL, Experiment 1: 68.6 pmol/mL
  Cyclic AMP produced (pmol/mL), TSH 1 ng/mL, Experiment 2: 41.1 pmol/mL
  Cyclic AMP produced (pmol/mL), TSH 1 ng/mL, Experiment 3: 154 pmol/mL
  Cyclic AMP produced (pmol/mL), TSH 3 ng/mL, Experiment 1: 57.7 pmol/mL
  Cyclic AMP produced (pmol/mL), TSH 3 ng/mL, Experiment 2: 52.4 pmol/mL
  Cyclic AMP produced (pmol/mL), TSH 3 ng/mL, Experiment 3: 201 pmol/mL
  Mutated/Wild type (%) of cyclic AMP produced, TSH 0.01 ng/mL, Experiment 1: 59%
  Mutated/Wild type (%) of cyclic AMP produced, TSH 0.01 ng/mL, Experiment 2: 67%
  Mutated/Wild type (%) of cyclic AMP produced, TSH 0.01 ng/mL, Experiment 3: 124%
  Mutated/Wild type (%) of cyclic AMP produced, TSH 0.03 ng/mL, Experiment 1: 70%
  Mutated/Wild type (%) of cyclic AMP produced, TSH 0.03 ng/mL, Experiment 2: 78%
  Mutated/Wild type (%) of cyclic AMP produced, TSH 0.03 ng/mL, Experiment 3: 96%
  Mutated/Wild type (%) of cyclic AMP produced, TSH 0.1 ng/mL, Experiment 1: 71%
  Mutated/Wild type (%) of cyclic AMP produced, TSH 0.1 ng/mL, Experiment 2: 88%
  Mutated/Wild type (%) of cyclic AMP produced, TSH 0.1 ng/mL, Experiment 3: 91%
